For 1 molecule, Kd results are on record in PMC10182041 (2023).

Experiment [1] deals with T1, Msi3, the sole Hsp110 of Candida albicans (Candida albicans, UniProt Q96VB9 1-701).
T1 chain: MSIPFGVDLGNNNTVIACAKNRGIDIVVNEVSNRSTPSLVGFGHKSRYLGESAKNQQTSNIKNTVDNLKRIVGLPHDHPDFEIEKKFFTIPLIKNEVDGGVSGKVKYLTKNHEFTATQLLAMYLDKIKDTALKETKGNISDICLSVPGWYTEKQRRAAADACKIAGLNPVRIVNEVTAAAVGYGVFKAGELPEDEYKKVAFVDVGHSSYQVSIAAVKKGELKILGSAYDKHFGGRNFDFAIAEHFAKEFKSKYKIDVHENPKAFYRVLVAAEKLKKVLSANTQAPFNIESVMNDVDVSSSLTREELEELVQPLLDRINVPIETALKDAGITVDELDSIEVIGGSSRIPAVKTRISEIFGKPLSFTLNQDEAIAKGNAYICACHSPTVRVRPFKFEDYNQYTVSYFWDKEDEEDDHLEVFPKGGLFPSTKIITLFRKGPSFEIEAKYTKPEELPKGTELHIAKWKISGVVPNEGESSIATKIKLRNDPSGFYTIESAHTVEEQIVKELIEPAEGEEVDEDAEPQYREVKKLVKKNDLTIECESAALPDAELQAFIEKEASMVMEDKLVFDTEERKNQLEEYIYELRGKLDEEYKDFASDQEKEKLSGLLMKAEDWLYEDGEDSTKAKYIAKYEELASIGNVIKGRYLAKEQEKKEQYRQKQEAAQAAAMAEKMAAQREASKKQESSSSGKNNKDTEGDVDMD
Kind of experiment: FP; +2H (100 µM).

For experiment [2], the target named is T1, Msi3, the sole Hsp110 of Candida …. Kind of experiment: FP.

Where no end group is shown, it is not given here.

As usually defined, the Kd is the equilibrium constant for the complex coming apart. The low end stands for a tighter complex, the high end for a looser complex. Turning to fluorescein-VYDFFVWL [TRP2-181 peptide labeled with a fluorescein at the N-terminus], the values for the Kd in experiment [1] and in experiment [2] were 5.45 µM and 0.65 µM, respectively.
